Experimental data as given in the DeepSol protein solubility set.

Test: soluble on expression in E. coli; label from the status in PepcDB or PDB records

Soluble on expression in E. coli, soluble:
MNATPASADDLIVIGKIYSVHGVRGEVKVYSFTDPIGNLLDYKTWTLRREGSVEKQVELVSGRLQSKFLVVKLKGLDDREEARLLSGYEICVPRNLFPDLDDGEYYWYQLEGLKVIDQLGQLLGKIDHLLETGSNDVMVVKPCAGSLDDRERLLPYTEQCVLAIDMAAGEMKVEWDADFLEHHHHHH
MIFEDKFIITTADEIPGLQLYSLGIASTISDNVDEIVENLRKQVKAKGGMGLIAFRITCADGKFLGYGTIVKADEAQFTMA
MTIAQEPTALNFECETGNYHTFCPISCVAWLYQKIEDSFFLVIGTKTCGYFLQNAMGVMIFAEPRYAMAELEEGDISAQLNDYAELKRLCEQIKRDRNPSVIVWIGTCTTEIIKMDLEGLAPKLEGEIGIPIVVARANGLDYAFTQGEDTVLAAMAHRCPDKAPVAEAEKNLEHHHHHH
MSLRPSLDAWTKMECVMVKIKTSDGLEGWGEAFGHVMAPGTEAVINQILAPMLVGKDSVAINHRVAEMERPLHGLGRSGPVMYGLSAIDTALWDLAAQRANLPLFKFLGGDSGVLTKYASLMRYGGDTDAVAQNVERARSYGFRTIKLHETTIPAFRAARNAVDFDDKICLDVNCPWTVSEARDVAQEILEDGFHWLEEPIWPPEDFEGLAEVRLEGVPISAGENITTLHEFKLALETEAVDNLQPSVTKCGGVSMMRKIFSLSEVYPVTVIPHCFYWGPGYHATAHLAASCLNSTPLETAFITFAVEPHNLFNSHSDKVTLDDTPGLGFNANWEALDQFIISTNEVTEGHHHHHH
MIRLSNENTIFFMDKENVPIASCQSGDTVIFETKDCFSDQITNEEQALTSIDFNRVNPATGPLYVEGARRGDMLEIEILDIKVGKQGVMTAAPGLGALGESLNSPTTKLFPIEGDDVVYSTGLRLPLQPMIGVIGTAPPGEPINNGTPGPHGGNLDTKDIKPGTTVYLPVEVDGALLALGDLHAAMGDGEILICGVEIAGTVTLKVNVKKERMFPLPALKTDTHFMTIASAETLDAAAVQATKNMATFLANRTALSIEEAGMLLSGAGDLYVSQIVNPLKTARFSLALHYFEKLGVDLCNLEHHHHHH
MSLYSKDGENYFIVDAHVALWDARRENQRNIHGKQFIDCFYDYHRNLSPASELWPYEDFLYQGGERLMKDLFTDGYVDHAIFQPAHLGAFYNTGFGQTEEAFALTRKHPGMLTYNHCFDPRFEEAGLKQLREDAARFGLKGVKLYTAEWKGDSRGYKLSDPWTYRYLDACRELGIKNIHVHKGPTIRPLDRDAFDVADVDAAASDFTDLNFVVEHCGLPRLEDFCWIATQEPNVHAGLAVAIPFMHTRPRYFAQIIGELLYWLDEDRIQFSSDYALWTPRWIVEQFVDFRIPDDMTGEYPQLTVAQKKKILGLNAAAMYDIEVPAEGHHHHHH
MSDSSQLHKVAQRANRMLNVLTEQVQLQKDELHANEFYQVYAKAALAKLPLLTRANVDYAVSEMEEKGYVFDKRPAGSSMKYAMSIQNIIDIYEHRGVPKYRDRYSEAYVIFISNLKGGVSKTVSTVSLAHAMRAHPHLLMEDLRILVIDLDPQSSATMFLSHKHSIGIVNATSAQAMLQNVSREELLEEFIVPSVVPGVDVMPASIDDAFIASDWRELCNEHLPGQNIHAVLKENVIDKLKSDYDFILVDSGPHLDAFLKNALASANILFTPLPPATVDFHSSLKYVARLPELVKLISDEGCECQLATNIGFMSKLSNKADHKYCHSLAKEVFGGDMLDVFLPRLDGFERCGESFDTVISANPATYVGSADALKNARIAAEDFAKAVFDRIEFIRSN

Soluble on expression in E. coli, not soluble:
MAFVLNGQDLDALATGGCFFGSGGGGTLSSAKGLLRHFNKGAYYPADQVTVVTVDEAVSAAEGDAVMVAYMGSPQAINGSSYPEGPVGAAENIQGKLATQGRKLAYIVPPESGALGFVVACLVAVRLGLKVIDADGAGRAVPSLPMLTYAAAAISPRPAVLVSQEGLQVELDVTPRDGENGSVTHQQDVAAIIENMMRPIVAAAQFKEFGGLAMWVMAPEQFSAALPIHGTLSRAVKTGHALAAGELDTAARMQDFLKRESGLLARPIFTGQFKAVEVSTGAGFDVGKMHIVSAEATCTVVYQNESMLAWDSRAAAPLVTAPDSLAYFVSGPGQSVYSNGDAVLADGTLSPSLKDRTVTLFAWQADAALRTPDGQILASFMGLLADMGYLGPYISVEAMQLATAGESRPLEHHHHHH
MKQEFSSIQFKAALLAAGLVLQVPAHANDGTIVITGAITDTTCIIEDPSDPNHTKVVQLPKISKSALKVKGDQAGRTPFTISLRDCPADLGNGVKVYFEPGPTTNYATGDLKAYKLAYATNPKATPLNSIVAATPATGVEIRISNLDDSKIPMGVDVTNQRAQGFNPVEQTGDTNKRTVTMRYLASYVKADGDIQASAITTYVGFSVVYP
MGSDKIHHHHHHMQSLYTSASTMAQLQKQLDTTGHNLANANTNGYKRRDSQFNELLVRNLNNQPAGLTPGSLTTPAGLRLGVGGYVANEATRFATGTFQNTGRKLDAALSNPHHFFGVIDADGVTKFTRDGNFELSPQANGQVLLTDDAGRSVINQANEPITFPDDATSIELNKDGNITGVLNGERRVLARIGVADIPNHGELTDVGGGLYTTAGQYQNATGNPLTVGTLETSNVDMATEMTNLTQIQRAYQFNSKALTTSDQMMGIVTSLK
MIIATAGHVDHGKTTLLQAITGVNADRLPEEKKRGMTIDLGYAYWPQPDGRVLGFIDVPGHEKFLSNMLAGVGGIDHALLVVACDDGVMAQTREHLQILQLTGNLQLTVALTKADRVDEARIGEVREEVLAALDNYGFADTVLFVTAANEGRGIAELRAHLQQLPARSHAAQHRFRLAIDRAFTVKGAGLVVTGTALSGEVNVGDTLWLTGVNTPMRVRSLHAQNQPTDHAYAGQRIALNIAGDAEKEQLNRGDWLLSDAPVGEAFSRVIVSLALHAPLSQWQPLHIHHAASHVTGRVSLLEGGLAELIFDTPLWLADNDRLVLRDISARATLAGARVVTLKAPRRGKRKPDYLHWLSTLAAAQDDSAALAIHLERGAVNLPDFGWARQLNPLGMRQLIEQHGFIQAGDNLLSAPVAARWQRKILDTLATYHEQHRDEPGPGRERLRRMALPMEDEALVLMLIERMRDDGLIHSHHGWLHLPDHKAGFSDEQQAVWQKVEPLFGDEPWWVRDLAKETGTEEQLMRLVLRQAAQQGIITAIVKDRYYRNDRIVAFANMIRELDQERGSTCAADFRDRLNVGRKLAIQILEYFDRIGFTRRRGNDHLLRDALLFPQKE
MSYLVVTIKVILITGMPGSGKSEFAKLLKERGAKVIVMSDVVRKRYSIEAKPGERLMDFAKRLREIYGDGVVARLCVEELGTSNHDLVVFDGVRSLAEVEEFKRLLGDSVYIVAVHSPPKIRYKRMIERLRSDDSKEISELIRRDREELKLGIGEVIAMADYIITNDSNYEEFKRRCEEVTDRVLKNG
MGSDKIHHHHHHGTSGTSKSSKTQLTGQSSDGDYEGVIKSGHYQTSKSRGVTNSQDSGNTYNVKSFENGMLGVSKKVFSTKSYVFQEGQYLSSSTVQNWLDRKTKSNPTGLNPKSNGSTSPTKRNPVYIQALEEQDYMTQKNNKLSLGGVTIGIAVNSVDYYKKTQYGATYETKITKAEGEAYAKKAANTVLKRLRKKSALKNVPIVIAIYRQASNDSLVGGNFIAYSENKGSATTVSKWNALSEKNYVFPIESGSSSPNSNDETSFTNFKSQVENFFPNLSGVTAQAHYSGNTLTGMHVNITTQFYSQTEIISFTQYLQTAAQKYLPSSVPIDITVSSTDSVQSFLSRSSGAKKFTSHVFNSY
MDLEAPPTLLQLAAQCTVRKEVLTISVLQNLPMKLFPPLFKEADILRKAKMIKLLVEYWPYPSLLVGLLIDKTNLETFQAILEGVGTWLKRKYRPRMGKLQVVDLRNGHHDFWDMLAGREGGDQLVETMPEKQEVEGHSRRQRLRVFSDLSFKSSRHEDKQQTHLLQWAKDREGFLHLCCEKLEIGALGVSKVKKVLKLLQPEFIKELELNTVGNLSKLTKLVPCISKMRNLQKLMLVRIFGRHTYTPLEERNVTKILSLFPKLSYLQHLTIDDVYFLRDHMNELFRYLEAPLLSLTITLCQISQSDLESFSQHWNYGQLKHLCLKGVSLSTLNVTPLKFFLESVADTLQTLELEDCRMKDSHLRILLPALTKCTRLTSINFYDNNISRDVLQDLLHRTANMSQLTMELYPAPVEVYNEWSYVQVERFSQLCAELMNTLITVRRPKSVCFGTYSCYDCDTHCIYGNQTTFCECLE
PGTESTFSNCYALNVEVVSLDSGDQAVLGGFVGQVSANFIAKHCYVSAKVTGGKNPGAFVGMTADESMNCKYDGCFYNNEQNP
MDPNFHNTGPSGSAPRKPETWRSCKEANKVIEMFYSEGNFYHDIYMEELANLAETSHKNVRDTLSRLRKKDERAGKYVPPPPKQMYEFTSEQRGALDQAFLVTPQMDSDGARELSEITGLTVKQINNWFCNQRRKADGRSAEKDKKRRERIREDMKKNGLGRVGTFRSEAVELFEKEYETMLQLEAIGGGKVRIPYTELVEKTGMERKKIRDWFSKRKGRDKRFLENMENTREVSPQNTQQNIQDILIKIVTQKEESALQRHAPEMRDAGQRDGFCLFGFFLRD
MGSDKIHHHHHHVESLLTAADLHIHTTASDGTASPEAVLSYVATETDLRVIAITDHDTLRGALYARERASHYGIDVIVGCEISTRSGHLLALFIEQPVPAGLSVTETVARIHDQGGMAFAAHPFGMLVPSIGRRHLLGPERTDVDWMQLDGIEVFNASLWNPMNNERAARCAQRWGLTHIGGSDAHNLTMIGAGRTLFAGTGAADLRRALQRRATLVHGRYWGWRGVAGVVRERVWRQFGRPVESVS
MYRRLASGLYQTSQRRIAQVQPKSVFVPETIVTTLPNGFRVATENTGGSTATIGVFIDAGSRYENEKNNGTAHFLEHMAFKGTPRRTRMGLELEVENIGAHLNAYTSRESTTYYAKCFTEKLDQSVDILSDILLNSSLATKDIEAERGVIIREMEEVAQNFQEVVFDILHADVFKGNPLSYTILGPIELIQTINKNDLQGYINTHYRSGRMVLAAAGGVNHDAIVKMAEKYFGELKHGDSSTEFVPATYSPCEVRGDIPDLPMLYGAMVVEGVSWTHEDNLALMVANTLMGEYDRMRGFGVNAPTRLAEKLSQDAGIEVFQSFNTCYKETGLVGTYFVAAPESIDNLIDSVLQQWVWLANNIDEAAVDRAKRSLHTNLLLMLDGSTPVCEDIGRQLLCYGRRIPTPELHARIESITVQQLRDVCRRVFLEGQVSAAVVGKTQYWPVNEEIHGRLIRMQ
MTTWLYAGVDGGGTGCRARIYQANGTPLGQGHGGRANLLLGVENVRQSVDNAIAQALKHSGLSPDDVSRLKVGLALASAEHRTAYDTFLALPHPYATQVLNTDALGACLAVNQGKDAGVVIAGTGSCGLAWQNQTITAYGGHEFPISDQGSGARLGLAALQHTHDVLQGWRAPSALSQSIDDFFCASAAHALAANTLDALQTFSQQAKPGDYAQFARHVFDCAQQDDAVSHALLAQTASEICLLLAAVARHASPRLSLMGSIGLHIRPWLPDEWQSQLAVPMGDALDGARLIACHDYALYSHPLLEHHHHHH
MGSDKIHHHHHHMGKKNYGKSVKTRLLNLMNETGYKYMYLLARYFNERLLYRVSVSQYKDNFLLKGGSLLYAMNGLEARPTVDVDFMADRISRDRDFLARVFQEILGIVCDEDGVSFDAGSIKIEPITVEKKYPGTRFYFTAHMDTIAYNMSVDIGFGDVVIPHPTTIDFPLLLPDIPSVNIQAYSLETVIAEKFHTMIDRDVLNSRMKDFFDCYQLLTKRNLNDDALYDAIEATFDNRGLAYNPDLQLFTDSFATDRARISRWKAFLRKIQWKEALDFDTVMKAIRDRLQPMAEKYWIKLSK
